Source: the DeepSol protein solubility set

Experiment: soluble on expression in E. coli; label from the status in PepcDB or PDB records

Row | Sequence | soluble on expression in E. coli
1 | MEKLRVGIVFGGKSAEHEVSLQSAKNIVDAIDKSRFDVVLLGIDKQGQWHVSDASNYLLNADDPAHIALRPSATSLAQVPGKHEHQLIDAQNGQPLPTVDVIFPIVHGTLGEDGSLQGMLRVANLPFVGSDVLASAACMDKDVTKRLLRDAGLNIAPFITLTRANRHNISFAEVESKLGLPLFVKPANQGSSVGVSKVTSEEQYAIAVDLAFEFDHKVIVEQGIKGREIECAVLGNDNPQASTCGEIVLTSDFYAYDTKYIDEDGAKVVVPAAIAPEINDKIRAIAVQAYQTLGCAGMARVDVFLTPENEVVINEINTLPGFTNISMYPKLWQASGLGYTDLITRLIELALERHAADNALKTTM | soluble
2 | SLTGQLHPAVRVADLLQHINQMKTAEGYGFKQEYESFFEGWDATKKKDKVKGSRQEPMPAYDRHRVKLHPMLGDPNADYINANYIDGYHRSNHFIATQGPKPEMVYDFWRMVWQEHCSSIVMITKLVEVGRVKCSRYWPEDSDTYGDIKIMLVKTETLAEYVVRTFALERRGYSARHEVRQFHFTAWPEHGVPYHATGLLAFIRRVKASTPPDAGPIVIHCSAGTGRTGCYIVLDVMLDMAECEGVVDIYNCVKTLCSRRVNMIQTEEQYIFIHDAILEACLCGETTIPVSEFKATYKEMIRIDPQSNSSQLREEFQTLNSVTPPLDVEECSIALLPRNRDKNRSMDVLPPDRCLPFLISTDGDSNNYINAALTDSYTRSAAFIVTLHPLQSTTPDFWRLVYDYGCTSIVMLNQLNQSNSAWPCLQYWPEPGRQQYGLMEVEFMSGTADEDLVARVFRVQNISRLQEGHLLVRHFQFLRWSAYRDTPDSKKAFLHLLAEVDKWQAESGDGRTIVHCLNGGGRSGTFCACATVLEMIRCHNLVDVFFAAKTLRNYKPNMVETMDQYHFCYDVALEYLEGLESR | not soluble
3 | AEPAGRQRPRREPEAMDEQSVESIAEVFRCFICMEKLRDARLCPHCSKLCCFSCIRRWLTEQRAQCPHCRAPLQLRELVNCRWAEEVTQQLDTLQLCSLTKHEENEKDKCENHHEKLSVFCWTCKKCICHQCALWGGMHGGHTFKPLAEIYEQHVTKVNEEVAKLRRRLMELISLVQEVERNVEAVRNAKDERVREIRNAVEMMIARLDTQLKNKLITLMGQKTSLTQETELLESLLQEVEHQLRSCSKSELISKSSEILMMFQQVHRKPMASFVTTPVPPDFTSELVPSYDSATFVLENFSTLRQRADPVYSPPLQVSGLCWRLKVYPDGNGVVRGYYLSVFLELSAGLPETSKYEYRVEMVHQSCNDPTKNIIREFASDFEVGECWGYNRFFRLDLLANEGYLNPQNDTVILRFQVRSPTFFQKSRDQHWYITQLEAAQTSYIQQINNLKERLTIELSRTQKSRDLSPPDNHLSPQNDDALETRAKKSACSDMLLEGGPTTASVREAKEDEEDEEKIQNEDYHHELSDGDLDLDLVYEDEVNQLDGSSSSASSTATSNTEENDIDEETMSGENDVEYNNMELEEGELMEDAAAAGPAGSSHGYVGSSSRISRRTHLCSAATSSLLDIDPLILIHLLDLKDRSSIENLWGLQPRPPASLLQPTASYSRKDKDQRKQQAMWRVPSDLKMLKRLKTQMAEVRCMKTDVKNTLSEIKSSSAASGDMQTSLFSADQAALAACGTENSGRLQDLGMELLAKSSVANCYIRNSTNKKSNSPKPARSSVAGSLSLRRAVDPGENSRSKGDCQTLSEGSPGSSQSGSRHSSPRALIHGSIGDILPKTEDRQCKALDSDAVVVAVFSGLPAVEKRRKMVTLGANAKGGHLEGLQMTDLENNSETGELQPVLPEGASAAPEEGMSSDSDIECDTENEEQEEHTSVGGFHDSFMVMTQPPDEDTHSSFPDGEQIGPEDLSFNTDENSGR | soluble
4 | MQIALAPMEGLVDEILRDVLTRVGGIDWCVTEFIRITDRLLPATAFHKLAPELRDGSRTRAGTPMRVQLLGSDPACLADNAAFACELGAPVIDLNFGCPAKTVNRSRGGAVLLKEPELMHDIVAAVRRAVPSEIAVTSKMRLGYDSPDGALDCARALADGGSAHVVVHARTKVDGYRPPAHWEWVARVAEAVRVPVFANGEVWTLDDYLRCREVSGVEDIMLGRGLVSRPGLARQIAAWRDGGEIREMPWSELLPLLRDFWLQARRKLAPRYAPGRLKQWLGMLTRTYPEAVELFARIRRESDCETIDR | not soluble
5 | MPLAVLERDGSFLGVLTPHSIVEVLLERERRLLEDARKINAEIRREADKAIEQLDIKAHYDTVTGLPNRQLFCDRLLQALAAHERDGNPVVLLFLDVDNFKSINDSLGHLVGDRLLRATAERIRTAVRDGDTVARIGGDEFTILLNGAKDTLNGALVAQKILDGLAQPFVFGAQQIVISVSIGIAVSPADGETMEQLLRNADTAMYHAKSRGKNNYQFFSPELNVQAYRRQEIERNLRCALLQGELGLRYAPRVDLRSGRIVALEVCPFWLSSELGDVPPDDFIPVAEETGLIVQIGIWAFRTACAHAAVWRTQGLADRCLSFRLSQRELDDPQFGDRIMSLLDGCGLEPENLQFELSERMLMTHAAHTLAVLQELSNRGIRFSVGDFGTGNASLRRLRRFPIDELKIDLSSVRDIEPDSDDAAVITAMIAMAKSLRMDVVAVGVETPEHVAFLLERGCRHGQGRLIGARLPPERIAALLAGDAVDLFVALEHHHHHH | not soluble
6 | APQVVDKVAAVVNNGVVLESDVDGLMQSVKLNAAQARQQLPDDATLRHQIMERLIMDQIILQMGQKMGVKISDEQLDQAIANIAKQNNMTLDQMRSRLAYDGLNYNTYRNQIRKEMIISEVRNNEVRRRITILPQEVESLAQQVGNQNDASTELNLSHILIPLPENPTSDQVNEAESQARAIVDQARNGADFGKLAIAHSADQQALNGGQMGWGRIQELPGIFAQALSTAKKGDIVGPIRSGVGFHILKVNDLRGESKNISAAQKDRAYRMLMNRKFSEEAASWMQEQRASAYVKILSN | soluble
7 | MAHHHHHHMSYLLHSSSYAAATAAAERDGPARGAGGGPLNVVLSRVRSLLHGEPSRVARATSIIDDGSSGSLKRAERHSGASSASRREVLLPLTHDSARVARVPEVSGFIEHGGGFAIPAAKASPRTAPTPVAPPTTNESPVHRPPSARPVDAARDASLYERAVDYTDLEEILRCPLPPVPGCPTPCAFGRHSAGLSSDGSVTAAATLSPPPAPSSARQPPLVFRCIAADSDTGISVYSTPAEDCPMHLMRAYAVLPCSPGDVLQYMDNDIRPRWDSHLRRSALLRELTPPEQTKAVERQYRLSTSIGTAGAAVSQRSPTSLSAQSQGALRQRASSSPRTTGAIHGGCGSAVVSGPATAAASSPTAFQYLPGQRRVAIHYLETRSPVPFVQDRDFEIVVAEEVRPDDTAYVKAFSTPLGYHMPLGPHQSRYVRAVVVLSGMVARPLDAARVEEVLPPVLLRHHRAAAQHGNIQVAGIATKKPSASATVCGDAAARAACVAAPHRYCVVEYVGLVHPMGLLPAVLVNMIISAQLNAMRKMQAFIMQHPMSTLRPRSATHAATGEATGQPLQELLVSLQSLSPSPRKSSRMGKSQESDAAGRTREVKPEATGASAASVSAPLAASPAPVWWRRQMHRFASNL | not soluble
8 | MKLGFVGAGRVGSTSAFTCLLNLDVDEIALVDIAEDLAVGEAMDLAHAAAGIDKYPKIVGGADYSLLKGSEIIVVTAGLARKPGMTRLDLAHKNAGIIKDIAKKIVENAPESKILVVTNPMDVMTYIMWKESGKPRNEVFGMGNQLDSQRLKERLYNAGARNIRRAWIIGEHGDSMFVAKSLADFDGEVDWEAVENDVRFVAAEVIKRKGATIFGPAVAIYRMVKAVVEDTGEIIPTSMILQGEYGIENVAVGVPAKLGKNGAEVADIKLSDEEIEKLRNSAKILRERLEELGY | soluble
9 | MGSDKIHHHHHHMLEGEFLSVAELKDLTLSLASKFLNNLLASKLLVSKQLFIDRKKELGLLEERLKSGKAQFIVIYGRRRVGKTALILEFLRRHGGLYLLARETSEIENLERFSLRLAEYFNDSFLKKNPLRSLDAFFEYLSTKAEKPFIIAIDEFPYLVKGNKALPSILQEYWEMKLSKKKIFLIVSGSSVSMTERLLGYKSPLYGRRTAQLKLKPLDFFNAREFLPKYSLEDFVRVYGILGGTPAYLLEFSDEKSLEENLKSYFRVDSLLYGDALFILREELDEPRNYFAIMEAIARGNTTLGEIVNETGLERATVGKYLSVLIDLDLVRREVPITASRKSRKGRYYIADNYFAFWFRYVYPNADLIESGNGELLVDTVMDDIDHYTGEVFEGVAKEFLLRLNKSERLPFRFSRVGRWWYKNEEIDLVALNEREKKVLFIEVKWKDLSKREARGILKDLKRKAKLVGLDEWGKHYGLVAKSVRGKDEIKEEGWLAWDLEDIHRMAF | not soluble
10 | SLIKFLSALILLLVTTAAQAERIRDLTSVQGVRQNSLIGYGLVVGLDGTGDQTTQTPFTTQTLNNMLSQLGITVPTGTNMQLKNVAAVMVTASLPPFGRQGQTIDVVVSSMGNAKSLRGGTLLMTPLKGVDSQVYALAQGNILVGGAGASAGGSSVQVNQLNGGRITNGAVIERELPSQFGVGNTLNLQLNDEDFSMAQQIADTINRVRGYGSATALDARTIQVRVPSGNSSQVRFLADIQNMQVNVTPQDAKVVINSRTGSVVMNREVTLDSCAIAQGNLSVTVNRQANVSQPDTPFGGGQTVVTPQTQIDLRQSGGSLQSVRSSASLNNVVRALNALGATPMDLMSILQSMQSAGCLRAKLEII | not soluble
11 | MTENILRKSDEEIQKEITARVKALESMLIEQGILTTSMIDRMAEIYENEVGPHLGAKVVVKAWTDPEFKKRLLADGTEACKELGIGGLQGEDMMWVENTDEVHHVVVCTLCSCYPWPVLGLPPNWFKEPQYRSRVVREPRQLLKEEFGFEVPPSKEIKVWDSSSEMRFVVLPQRPAGTDGWSEEELATLVTRESMIGVEPAKAV | soluble
12 | MGSDKIHHHHHHMENILDKLGIELNEQTRLTNDSKFTFNCHSGLSCFNTCCSNLDIVLTPYDILRMKNRLGLTSVEFISEYTEPVIQKESKLPFLKLKLGDEGKCRFVAAEGCTVYGDRPAACRYYPLGFGIYKNEEAGDDFYFLIREDHCKGFEEEREWTVGEWRKNQGVDEYDDKNRVWMEVILNKKLYSPELEPDEKSLKMFFMASYDLDAFRDFVFESRFLDVFDIEEERLEMIKNDEAELMLFAHQWLLFALFKKPTMNLKQV | not soluble
13 | MGSDKIHHHHHHMTEKVSRFPGVFPLIVIGVPGSVDKTHKKLAFAPNLNRWRDIDVEKYFKVFEVYLENDANLAALAEMMRNKHFGDRKNIVYILVREGIGGGIIIEGKLYKGSFNAAGEIGHMKMYDRGPCFCGRVGCWEANTSISHCVRQYEKKKPLPGNTMYEKFETLCRIYEEDPLAKEVLDEFTGILIDGIVNLVNILSPEIVIVGGEGVFLPESVFEVIVSETRRQVHPMDKEVSVEKGSLSNKEVVLEGTSILSSMMISERLV | not soluble
14 | MTEMTKPFLIVIVGPTASGKTELSIEVAKKFNGEIISGDSMQVYQGMDIGTAKVTTEEMEGIPHYMIDILPPDASFSAYEFKKRAEKYIKDITRRGKVPIIAGGTGLYIQSLLYNYAFEDESISEDKMKQVKLKLKELEHLNNNKLHEYLASFDKESAKDIHPNNRKRVLRAIEYYLKTKKLLSSRKKVQQFTENYDTLLIGIEMSRETLYLRINKRVDIMLGHGLFNEVQHLVEQGFEASQSMQAIGYKELVPVIKGNISMENAVEKLKQHSRQYAKRQLTWFKNKMNVHWLNKERMSLQMMLDEITTQINKRSSNHDCKRKHPRPSTRELLEHHHHHH | soluble
15 | MAHHHHHHMTLIENLNSDKTFLENNQYTDEGVKVYEFIFGENYISSGGLEATKKILSDIELNENSKVLDIGSGLGGGCMYINEKYGAHTHGIDICSNIVNMANERVSGNNKIIFEANDILTKEFPENNFDLIYSRDAILHLSLENKNKLFQKCYKWLKPTGTLLITDYCATEKENWDDEFKEYVKQRKYTLITVEEYADILTACNFKNVVSKDLSDYWNQLLEVEHKYLHENKEEFLKLFSEKKFISLDDGWSRKIKDSKRKMQRWGYFKATKN | soluble
